The text below walks through data of paper PMC3873296, “Crystal Structures and Molecular Dynamics Simulations of Thermophilic Malate Dehydrogenase Reveal Critical Loop Motion for Co-Substrate Binding” (PLoS ONE, 2013).

The target in series [1] is T1, TtMDH (malate dehydrogenase from Thermus thermophilus) (Thermus thermophilus, UniProt P10584).
T1 construct: gene mdh
T1 sequence (P10584 1-327): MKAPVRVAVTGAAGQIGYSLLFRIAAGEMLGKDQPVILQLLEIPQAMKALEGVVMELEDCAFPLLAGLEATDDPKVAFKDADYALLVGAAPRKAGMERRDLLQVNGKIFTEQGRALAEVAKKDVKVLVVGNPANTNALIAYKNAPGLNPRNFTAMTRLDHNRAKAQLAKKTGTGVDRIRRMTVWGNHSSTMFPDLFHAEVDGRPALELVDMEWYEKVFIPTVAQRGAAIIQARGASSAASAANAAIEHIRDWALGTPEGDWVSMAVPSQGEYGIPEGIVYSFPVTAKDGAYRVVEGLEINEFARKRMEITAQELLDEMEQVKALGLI
As to the kind of experiment: X-ray crystal structure, […] Å. The class given is binding. The following applies: apo crystal soaked with 2 mM NAD for about 30 min.

Series [2] deals with T1, TtMDH (malate dehydrogenase from Thermus thermophilus). In words: isothermal titration calorimetry. The class given is binding. The source says: isothermal titration calorimetry on TtMDH (malate dehydrogenase from Thermus thermophilus)
(In general: In ITC the heat of successive injections is recorded.)

Substrate in series [3]: O=C(O)CC(=O)C(=O)O
As to the kind of experiment: purified protein. The class given is biochemical, Thermus thermophilus. To be noted: 0.15 mM NADH, 100 mM glycine-NaOH pH 10.0, 37 °C.

Series [4] deals with the molecule itself. As to the kind of experiment: SEC; analytical gel filtration on Superdex 200 HR; 0.1 ml TtMDH at 8.8 mg/ml; elution compared with high-molecular-weight standards; estimated mass 61 kDa against 37 kDa for the subunit.

As for `NC(=O)c1ccc[n+]([C@@H]2O[C@H](COP(=O)(O)OP(=O)(O)OC[C@H]3O[C@@H](n4cnc5c(N)ncnc54)[C@H](O)[C@@H]3O)[C@@H](O)[C@H]2O)c1` [NAD], in series [1], the “X-ray crystal structure, 2.36 Å” value is recorded as “co-substrate binding site of TtMDH that could be modeled as NAD”.
As usually defined, the Kd is the free concentration of one partner at which half of the binding sites on the other are occupied at equilibrium, for simple one-to-one binding. `NC(=O)C1=CN([C@@H]2O[C@H](COP(=O)(O)OP(=O)(O)OC[C@H]3O[C@@H](n4cnc5c(N)ncnc54)[C@H](O)[C@@H]3O)[C@@H](O)[C@H]2O)C=CC1` [NADH] had a Kd in series [2] of 1160 nM. This counts as single-digit micromolar.

B1: Malate dehydrogenase from Thermus thermophilus (enzyme, UniProt P61977 1-327, looked up)
chain: T1 sequence (P10584 1-327)
notes: Malate dehydrogenase (EC 1.1.1.37) of Thermus thermophilus; calculated mass of the recombinant protein 36874.48 Da; also called TtMDH; MDH; source: E. coli BL21(DE3), purified (heat incubation at 70°C, Ni2+-NTA, Superdex 200 HR gel filtration)
As usually defined, the Km is the concentration of substrate that gives half-maximal velocity. Broadly, the kcat is the number of substrate molecules converted per active site and unit of time at saturation. By stoichiometry N is commonly meant a count of units in the complex or per binding partner. Regarding B1, in series [3], the Michaelis-Menten constant (Km) stood at 168.1 µM and the turnover number (kcat) stood at 281.6 s⁻¹. The “stoichiometry N” value in series [4] is 2.
